Test results published in US20230233707A1.

Molecular target: CD40 (UniProt P25942)
Assay: cell-based or functional assay

LOB7/6 (antibody)
EC50 from CD40 activation experiments (bioluminescent CD40 effector CHO cell assay): -1.47 log(µM)
